Experimental data from patent US9255257B2, “PmST1 mutants for chemoenzymatic synthesis of sialyl lewis X compounds” (THE REGENTS OF THE UNIVERSITY OF CALIFORNIA, priority 2011, dated 2016).
Where a chain is given by its changes, count along the chain named. Names may count otherwise.

Legend:
[1] = tested on: Cc1cc(=O)oc2cc(O[C@@H]3O[C@H](CO)[C@@H](O[C@@H]4O[C@H](CO)[C@H](O)[C@H](O)[C@H]4O)[C@H](O)[C@H]3O)ccc12; assay: α2-3-sialyltransferase activity, LacβMU as acceptor; format: biochemical, Pasteurella multocida; conditions: other: apparent, acceptor, CMP-Neu5Ac 1 mM, Tris-HCl pH 8.5, 37° C.
Description: (§1) To obtain the apparent kinetic parameters of LacβMU as the acceptor for the α2-3-sialyltransferase activity, the kinetic assays were performed in duplicate in reaction mixtures of 10 μL containing Tris-HCl buffer (100 mM, pH 8.5), a fixed concentration of CMP-Neu5Ac (1 mM), different concentrations of LacβMU (0.2, 0.5, 1.0, 2.0, 5.0, and 9.0 mM) and the mutant proteins (2 μg mL^−1 of E271F, 2 μg mL^−1 of R313Y, and 1.6 μg mL^−1 of E271F/R313Y). All reactions were allowed to proceed at 37° C. for 5 min (E271F), 7 min (R313Y), and 10 min (E271F/R313Y). The apparent kinetic parameters were obtained by fitting the experimental data (the average values of duplicate assay results) into the Michaelis-Menten equation using Grafit 5.0.
(§2) To obtain the apparent kinetic parameters of CMP-Neu5Ac as the donor for the α2-3-sialyltransferase activity, the kinetic assays were performed in duplicate in reaction mixtures of 10 μL containing Tris-HCl buffer (100 mM, pH 8.5), a fixed concentration of LacβMU (1 mM), different concentrations of CMP-Neu5Ac (0.1, 0.2, 0.5, 1.0, 2.0, 5.0, 10.0 and 20.0 mM) and the mutant proteins (2 μg mL^−1 of E271F, 2 μg mL^−1 of R313Y, and 1.6 μg mL^−1 of E271F/R313Y). All reactions were allowed to proceed at 37° C. for 2 min (E271F), 7 min (R313Y), and 5 min (E271F/R313Y). The apparent kinetic parameters were obtained by fitting the experimental data (the average values of duplicate assay results) into the Michaelis-Menten equation using Grafit 5.0.
(§3) All the sialidase and α2-3-sialyltransferase assays were performed in an HPLC system. Reactions were stopped by adding 10 μL of ethanol. After necessary dilutions were performed to adjust the concentrations of the fluorescent-labeled compounds, the samples were then kept on ice until aliquots of 8 μL were injected and analyzed by a Shimadzu LC-6AD system equipped with a membrane on-line degasser, a temperature control unit, and a fluorescence detector (Shimadzu RF-10AXL). A reverse-phase Premier C18 column (250×4.6 mm i.d., 5 μm particle size, Shimadzu) protected with a C18 guard column cartridge was used. The mobile phase was 25% acetonitrile. The fluorescent compounds LacβMU and Neu5Acα2-3LacβMU were detected by excitation at 325 nm and emission at 372 nm.

[2] = tested on: CC(=O)N[C@H]1[C@H]([C@H](O)[C@H](O)CO)O[C@](OP(=O)(O)OC[C@H]2O[C@@H](n3ccc(N)nc3=O)[C@H](O)[C@@H]2O)(C(=O)O)C[C@@H]1O; assay: as above; format: biochemical, Pasteurella multocida; conditions: other: apparent, donor, LacβMU 1 mM, Tris-HCl pH 8.5, 37° C.
Description: as §1, §2, §3

[3] = tested on: CC(=O)N[C@H]1[C@H]([C@H](O)[C@H](O)CO)O[C@@](O[C@H]2[C@@H](O)[C@@H](CO)O[C@@H](O[C@H]3[C@H](O)[C@@H](O)[C@H](Oc4ccc5c(C)cc(=O)oc5c4)O[C@@H]3CO)[C@@H]2O)(C(=O)O)C[C@@H]1O; assay: α2-3-sialidase activity, Neu5Acα2-3LacβMU as substrate; format: biochemical, Pasteurella multocida; conditions: other: apparent, MES pH 5.5, 37° C.
Description: Site-directed mutagenesis. Site-directed mutagenesis was carried out using the QuikChange multi-site-directed mutagenesis kit from Stratagene according to the manufacturer's protocol. The primers used were 5′-[…] -3′ (SEQ ID NO:32) for E271F and 5′-[…]-3′ (SEQ ID NO:33) for R313Y. The sites of mutations are underlined.
Protein Expression and Purification. The plasmids containing the mutant genes were transformed into E. coli BL21 (DE3). The E. coli cells were cultured in LB-rich media (10 g L^−1 tryptone, 5 g L^−1 yeast extract, and 10 g L^−1 NaCl) supplemented with ampicillin (100 μg mL^−1). Overexpression of the mutant proteins was achieved by adding 0.1 mM of isopropyl-1-thio-β-D-galactopyranoside (IPTG) to the E. coli culture when its OD600 nm reached 0.8. […]
as §3, with “Reactions were stopped by adding 10 μL of ethanol.” left out, “A reverse-phase Premier C18 column (250×4.6 mm i.d., 5 μm particle size, Shimadzu) protected with a C18 guard column cartridge was used. The mobile phase was 25% acetonitrile.” left out

[4] = tested on: CC(=O)N[C@H]1[C@H]([C@H](O)[C@H](O)CO)O[C@](OP(=O)(O)OC[C@H]2O[C@@H](n3ccc(N)nc3=O)[C@H](O)[C@@H]2O)(C(=O)O)C[C@@H]1O; assay: purified protein, by the assay type; conditions: other: apparent
[5] = tested on: CC(=O)N[C@H]1[C@H](Oc2ccc3c(C)cc(=O)oc3c2)O[C@H](CO)[C@@H](O[C@@H]2O[C@H](CO)[C@H](O)[C@H](O)[C@H]2O)[C@@H]1O[C@@H]1O[C@@H](C)[C@@H](O)[C@@H](O)[C@@H]1O; assay: purified protein, by the assay type; conditions: other: apparent; acceptor; WT; 37.0 °C
Description: Kinetics of the α2-3-sialyltransferase activity of PmST1 mutants by HPLC analysis. With LacβMU as the acceptor substrate, the reactions were performed in duplicate at 37° C. for 10 min (M144D) or 4 min (M144H) in a reaction mixture (10 μL) containing Tris-HCl (100 mM, pH 8.5), an enzyme (5 μg mL^−1), and different concentrations (0.2, 0.5, 1.0, 2.0, and 5.0 mM) of LacβMU with a fixed concentration (1 mM) of CMP-Neu5Ac or different concentrations (0.2, 0.5, 1.0, 2.0, 5.0, and 10.0 mM) of CMP-Neu5Ac with a fixed concentration (1 mM) of LacβMU. With Le^xβMU as the acceptor substrate, the reactions were carried out in duplicate at 37° C. for 9 min (M144D) or 10 min (M144H) in a reaction mixture (10 μL) containing CAPSO (100 mM, pH 9.5), an enzyme (M144D, 39 μg mL^−1 or M144H, 5 μg mL^−), and various concentrations of Le^xβMU (1.0, 5.0, 10.0, 15.0, 25.0, and 35.0 mM) with a fixed concentration (1 mM) of CMP-Neu5Ac or various concentrations (0.2, 0.5, 1.0, 2.0, 5.0, 10.0, 20.0, and 40.0 mM) of CMP-Neu5Ac with a fixed concentration (1 mM) of Le^xβMU. Reactions were stopped by adding 10 μL of pre-chilled ethanol. The mixtures were incubated on ice for 30 min and centrifuged at 13,000 rpm for 5 min. The supernatants were diluted with 25% acetonitrile and kept on ice until aliquots of 8 μL were injected and analyzed by the Shimadzu LC-6AD system equipped with a membrane on-line degasser, a temperature control unit, and a fluorescence detector (Shimadzu RF-10AXL). A reverse-phase Premier C18 column (250×4.6 mm i.d., 5 μm particle size, Shimadzu) protected with a C18 guard column cartridge was used. The mobile phase was 25% acetonitrile. The fluorophore (MU)-labeled compounds were detected by excitation at 325 nm and emission at 372 nm. The apparent kinetic parameters were obtained by fitting the experimental data (the average values of duplicate assay results) into the Michaelis-Menten equation using Grafit 5.0.

[6] = Apparent kinetics of the α2-3-sialidase activity (HPLC, fluorescent sialoside substrate); format: biochemical; conditions: substrate Neu5Acα2-3LacβMU
Description: All the sialidase and α2-3-sialyltransferase assays were performed in an HPLC system. Reactions were stopped by adding 10 μL of ethanol. […] The mobile phase was 25% acetonitrile.
Kinetics of the α2-3-sialidase activity of PmST1 mutants.

[7] = Kinetics of the donor (CMP-Neu5Ac) hydrolysis activity by capillary electrophoresis; format: biochemical
Description: The reactions were stopped by adding 10 μL of pre-chilled ethanol. The mixtures were incubated on ice for 30 min and centrifuged at 13,000 rpm for 5 min. The supernatants were diluted with borate buffer (25 mM, pH 9.5) and aliquotes of 5 μL each were injected to a Beckman Coulter P/ACE™ MDQ Capillary Electrophoresis system equipped with a capillary (60 cm×75 μm i.d.) and monitored at 254 nm. The apparent kinetic parameters were obtained by fitting the experimental data (the average values of duplicate assay results) into the Michaelis-Menten equation using Grafit 5.0.

[8] = donor hydrolysis, WT, Tris-HCl pH 8.5, 37° C., 15 min
[9] = donor, with Le^xβMU, WT, 37.0 °C

## Pasteurella multocida PmST1 double mutant E271F/R313Y of SEQ ID NO: 13 (E247F/R289Y of Δ24PmST1, SEQ ID NO: 11) (Pasteurella multocida; E271F/R313Y)
[1]; E271F/R313Y
  Km: 540 ± 40 µM
[2]; E271F/R313Y
  Km: 340 ± 20 µM

## Pasteurella multocida PmST1 mutant E271F of SEQ ID NO: 13 (E247F of Δ24PmST1, SEQ ID NO: 7) (Pasteurella multocida; E271F)
[3]; E271F, 1 min
  Km: 5700 ± 900 µM
[1]; E271F
  Km: 710 ± 120 µM
[2]; E271F
  Km: 180 ± 10 µM

## Pasteurella multocida PmST1 mutant H311A (Pasteurella multocida; H311A)
[4]; donor hydrolysis, H311A, Tris-HCl pH 8.5, 37° C., 20 min
  Km: 1800 ± 200 µM

## Pasteurella multocida PmST1 mutant R313Y of SEQ ID NO: 13 (R289Y of Δ24PmST1, SEQ ID NO: 9) (Pasteurella multocida; R313Y)
[3]; R313Y, 25 min
  Km: 51000 ± 5000 µM
[1]; R313Y
  Km: 670 ± 50 µM
[2]; R313Y
  Km: 620 ± 40 µM

## Pasteurella multocida α2-3-sialyltransferase 1 (PmST1), wild type (WT), SEQ ID NO: 13 (Pasteurella multocida)
[5]
  Km: 17000 ± 2000 µM
  kcat: 6.7 ± 0.3 s⁻¹
[4]; [8]
  Km: 1500 ± 200 µM
  kcat: 27 ± 1 s⁻¹
  kcat/Km: 18000 M⁻¹ s⁻¹
[4]; [9]
  Km: 390 ± 30 µM
  kcat: 0.55 ± 0.01 s⁻¹

B1: D141A (protein)
chain: MKNRRLNFKLFFLIIFSLFSTLSWSKTITLYLDPASLPALNQLMDFTQNNEDKTHPRIFGLSRFKIPDNIITQYQNIHFVELKDNRPTEALFTILDQYPGNIELNIHLNIAHSVQLIRPILAYRFKHLDRVSIQQLNLYDAGSMEYVDLEKEENKDISAEIKQAEKQLSHYLLTGKIKFDNPTIARYVWQSAFPVKYHFLSTDYFEKAEFLQPLKEYLAENYQKMDWTAYQQLTPEQQAFYLTLVGFNDEVKQSLEVQQAKFIFTGTTTWEGNTDVREYYAQQQLNLLNHFTQAEGDLFIGDHYKIYFKGHPRGGEINDYILNNAKNITNIPANISFEVLMMTGLLPDKVGGVASSLYFSLPKEKISHIIFTSNKQVKSKEDALNNPYVKVMRRLGIIDESQVIFWDSLKQL
[6]
  decrease of α2-3-sialidase activity (catalytic efficiency kcat/Km) compared to wild-type PmST1: about 7,300 fold
[7]
  decrease of efficiency of CMP-Neu5Ac (donor) hydrolysis activity compared to WT: 1,000 fold

B2: R313Y (protein, listed as Pasteurella multocida)
chain: B1 chain with A141D, R313Y
modifications: PmST1 wild-type glycosyltransferase family 80 (GT80), GT80 sialyltransferase, Pm0188Ph
[6]
  decrease in sialidase kcat (turnover number) compared to wild-type PmST1: 1,278 fold
  decrease of α2-3-sialidase activity (catalytic efficiency kcat/Km) compared to wild-type PmST1: 2,639 fold
  increase in sialidase Km value compared to wild-type PmST1: 2 fold

B3: H311A (protein)
chain: B1 chain with A141D, H311A
[7]
  decrease of efficiency of CMP-Neu5Ac (donor) hydrolysis activity compared to WT: 16 fold

B4: E271F (protein, listed as Pasteurella multocida)
chain: B1 chain with A141D, E271F
modifications: PmST1 wild-type glycosyltransferase family 80 (GT80), GT80 sialyltransferase, Pm0188Ph
[6]
  decrease in sialidase Km value compared to wild-type PmST1: 4.2 fold
  decrease in sialidase kcat (turnover number) compared to wild-type PmST1: 250 fold
  decrease of α2-3-sialidase activity (catalytic efficiency kcat/Km) compared to wild-type PmST1: about 59 fold
